Results on two substances are retold here after paper PMC9134599.

Assay [1] has as its target human amylin 1 receptor (CTR + RAMP1) (human) (UniProt O60894).
Assay [2] concerns the target human calcitonin receptor, transcript variant 2 (CT(a) subtype), expressed alone (human).

Sequence of UniProt O60894 (O60894 whole entry, looked up): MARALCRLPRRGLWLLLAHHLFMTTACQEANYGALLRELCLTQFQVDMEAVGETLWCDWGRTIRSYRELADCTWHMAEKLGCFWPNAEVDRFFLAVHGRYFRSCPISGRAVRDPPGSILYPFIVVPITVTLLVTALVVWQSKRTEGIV
Sequence of human amylin (P10997 34-70): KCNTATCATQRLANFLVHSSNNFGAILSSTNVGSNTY

Regarding “human amylin (from UniProt P10997 34-70) (peptide)”, the pEC50 of the amylin-induced current (two-electrode voltage clamp, -70 mV), oocytes expressing AMY1-R, amylin 0.01 to 10 μM in assay [1] was 6.33 -log M.

In the case of “human α-CGRP (calcitonin gene-related peptide) (from UniProt P06881 83-119)”, in assay [2], the inward current (two-electrode voltage clamp, -70 mV), oocytes expressing CTR, CGRP 0.01 to 10 μM; maximum at 10 μM was -1.07 μA and the pEC50 of the CGRP-induced inward current (two-electrode voltage clamp, holding potential -70 mV), oocytes expressing CTR is 5.42 -log M.
